Results on 10 substances are retold here after PMC4259887.

Test [1] concerns the target E2s mutant Asn560Ala (Hepatitis E virus (HEV)) (UniProt Q81871). Briefly: non-reducing SDS-PAGE; wild type E2s and its Ala mutants (expressed in E. coli) on non-reducing SDS-PAGE; dimer or monomer band.
For test [2], the target named is E2s mutant Gln531 to Ala (Hepatitis E virus (HEV)) (UniProt Q81871). The description is as above.
Test [3] has as its target E2s mutant Gln568 to Ala (Hepatitis E virus (HEV)) (UniProt Q81871). Described as above.
The target in test [4] is E2s mutant Ile529Ala (Hepatitis E virus (HEV)) (UniProt Q81871). The description is as above.
Test [5] deals with E2s mutant Pro604 to Ala (Hepatitis E virus (HEV)) (UniProt Q81871). The test is described as above.
Test [6] concerns the target E2s mutant Ser527 to Ala (Hepatitis E virus (HEV)) (UniProt Q81871). The description is as above.
Test [7] deals with E2s mutant Thr489 to Ala (Hepatitis E virus (HEV)) (UniProt Q81871). The test is described as above.
Test [8] concerns the target E2s, protruding homodimer domain of HEV capsid protein (wild type) (Hepatitis E virus (HEV)) (UniProt Q81871). The test is described as above.
In a further test the target is monoclonal antibody 8C11. Briefly: CLIA (chemiluminescent immunoassay). The settings on record: rE2-coated microplate; 8C11-HRP only; parent: est. 1.0e7; read off a plot.

By stoichiometry N is commonly meant a count of units in the complex or per binding partner. The substance “E2s mutant Asn560Ala (from UniProt Q81871 455-603) (domain or fragment)” had a stoichiometry N in test [1] of 2.
“E2s mutant Gln531 to Ala (from UniProt Q81871 455-603) (domain or fragment)” had a stoichiometry N in test [2] of 2.
“E2s mutant Gln568 to Ala (from UniProt Q81871 455-603) (domain or fragment)” displayed a stoichiometry N in test [3] of 2.
As to “E2s mutant Ile529Ala (from UniProt Q81871 455-603) (domain or fragment)”, in test [4], the stoichiometry N came to 2.
In test [5], “E2s mutant Pro604 to Ala (from UniProt Q81871 455-603) (domain or fragment)” gave a stoichiometry N of 2.
For the substance “E2s mutant Ser527 to Ala (from UniProt Q81871 455-603) (domain or fragment)”, the stoichiometry N in [6] is 2.
Substance “E2s mutant Thr489 to Ala (from UniProt Q81871 455-603) (domain or fragment)” came in with a stoichiometry N in [7] of 2.
In turn, “E2s, protruding homodimer domain of HEV capsid protein (wild type) (from UniProt Q81871 455-603) (domain or fragment)” registered a stoichiometry N in test [8] of 2.
Take “E2s, protruding homodimer domain of HEV capsid protein (wild type) (from UniProt Q81871) I529A”: the response with monoclonal antibody 8C11 stood at 9.7e+06 RLU/s.
Take “E2s, protruding homodimer domain of HEV capsid protein (wild type) (from UniProt Q81871) N560A”: the response with monoclonal antibody 8C11 worked out at 8.7e+06 RLU/s.
